{
  "source": "patent US20150266968A1",
  "about": "(COMPLIX, published 2015)",
  "binders": {"B1": {"name": "Alphabody MB23_hiR-V5 (designed binder)", "chain": "MSIEQIQKEITTIQEVIAAIQKYIYTMTGGSGGSGGMSIQQIQAAIRRIQRAIRRIQRAIRRMTGSGGGGSGMSIEEIQKQIAAIQEQIVAIYKQIMAMASHHHHHHGKPIPNPLLGLDST", "notes": "Cationized Alphabody directed against IL-23, with His-tag and V5 tag; Used as control in the BCL-2 family ELISA; also called cationized MB23; control Alphabody MB23-hiR-V5"}, "B2": {"name": "Alphabody AB1_pan_hiKR3-V5 (designed binder)", "chain": "MSIEEIQKQFKRIQKQIKRIAKQIKRMTGGSGGSGGMSIEEIAAQIAAIQLRIIGDQFNIYYMTGSGGGGSGGSIEEIKKSIRAIQKEIKKIQKKIKKMTPHHHHHHHHHHGKPIPNPLLGLDST", "notes": "captured on the plate by anti-V5 antibody in the ELISA"}, "B3": {"name": "Alphabody AB1_A2aF_hiKR3-V5 (designed binder)", "chain": "MSIQQIQKQFKRIQKQIKRIEKQIKRMTGGSGGSGGMSIEEITKQIAAIQLRIVGDQVQIYAMTGGSGGGSGGGSGGGSGGSIEEIKKSIRAIQKEIKKIQKKIKKMTPHHHHHHHHHHGKPIPNPLLGLDST"}},
  "key": {"[1]": {"biological_target": "T1, GST-tagged recombinant human MCL-1 (residues 172 to 327) (human, UniProt Q07820 172-327)", "T1 construct": "Produced in E. coli as an N-terminal GST fusion and purified using the GST-tag; also called recombinant MCL-1; GST-MCL-1; not shown: N-terminal GST tag and any linker or cleavage site between GST and MCL-1", "T1 sequence (Q07820 172-327 limits assumed)": "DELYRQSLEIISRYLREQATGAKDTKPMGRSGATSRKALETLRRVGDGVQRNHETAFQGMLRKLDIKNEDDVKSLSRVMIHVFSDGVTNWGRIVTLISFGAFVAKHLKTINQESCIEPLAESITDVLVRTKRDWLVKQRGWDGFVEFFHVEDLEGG", "experiment": "ELISA: Alphabody (500 nM) captured by immobilized anti-V5 antibody, five-fold dilutions of GST-MCL-1, detection with anti-GST-HRP, OD read at 492 nm and 630 nm"}, "[2]": {"biological_target": "T2, GST-tagged recombinant human BCL-XL with a C terminal deletion of 24 amino acids (human, UniProt Q07817 1-209)", "T2 construct": "domain: BCL-XL with a C terminal deletion of 24 amino acids; Produced in E. coli as an N-terminal GST fusion; also called GST-BCL-XL; not shown: Glutathione S Transferase (GST) tag at the N-terminus", "T2 sequence (Q07817 1-209, stated change not applied)": "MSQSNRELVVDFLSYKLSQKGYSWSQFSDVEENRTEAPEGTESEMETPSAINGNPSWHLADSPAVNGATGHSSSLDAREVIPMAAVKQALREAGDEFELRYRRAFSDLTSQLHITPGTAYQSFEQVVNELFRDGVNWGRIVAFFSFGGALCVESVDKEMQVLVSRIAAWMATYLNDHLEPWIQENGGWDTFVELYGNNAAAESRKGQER", "experiment": "ELISA: Alphabody (500 nM) captured by immobilized anti-V5 antibody, five-fold dilutions of GST-BCL-XL, detection with anti-GST-HRP, OD read at 492 nm and 630 nm", "procedure": "(§1) FIG. 13: Binding of recombinant BCL-2 family proteins to Alphabody AB1_pan_hiKR3-V5. Alphabody (500 nM) was captured by immobilized anti-V5 antibody (5 microg/ml) to a microtiterplate. Binding of five-fold dilutions of Glutathione S transferase (GST)-tagged recombinant BCL-2 family proteins MCL-1, BCL-XL and BCL-2a was detected using a anti-GST antibody conjugated to Horse Radish Peroxidase. Plates were read at 492 nm and 630 nm.\n(§2) Maxisorp Nunc plates were coated with 100 microl anti-V5 antibody (5 microg/ml) in carbonate buffer pH 9.6 overnight at 4° C. The next day, plates were washed 3 times with Tris Buffered Saline containing 0.05% Tween 20 (TBST) and blocked with TBS containing 0.1% BSA and 0.5% gelatin for 2 h at 37° C. After washing plates 5 times with TBST, 500 nM AB1_pan_hiKR3-V5 Alphabody was added to the plates for 2 h at RT while shaking. Plates were washed 10 times with TBST and five-fold dilutions of Glutathione S transferase (GST) tagged recombinant BCL-2 family proteins (MCL-1, BCL-XL and BCL-2a) were added and further incubated for 2 h at RT while shaking. Binding of GST-tagged recombinant BCL-2 family proteins was detected using an anti-GST antibody conjugated to Horse Radish Peroxidase. […] Signals indicative for specific binding of AB1_pan_hiKR3-V5 to the particular BCL-2 family recombinant protein were read at 492 nm and 630 nm."}, "[3]": {"biological_target": "T1, GST-tagged recombinant human MCL-1 …", "experiment": "ELISA: Alphabody (500 nM) captured by immobilized anti-V5 antibody, five-fold dilutions of GST-tagged recombinant protein, detection with anti-GST-HRP, OD read at 492 nm and 630 nm", "procedure": "as §1, §2"}, "[4]": {"biological_target": "T2, GST-tagged recombinant human BCL-XL …", "experiment": "ELISA: Alphabody (500 nM) captured by immobilized anti-V5 antibody, five-fold dilutions of GST-tagged recombinant protein, detection with anti-GST-HRP, OD read at 492 nm and 630 nm", "procedure": "as §1, §2"}},
  "data": [
    {"binder": "B1", "values": [
      {"measurement": "binding result", "setting": "[1]", "result": "no binding (tested: 200 nM)"}
    ]},
    {"binder": "B2", "values": [
      {"measurement": "EC50 (read off the curve)", "setting": "[2]", "result": "~5", "unit": "nM"},
      {"measurement": "EC50 (read off the curve)", "setting": "[3]", "result": "~2", "unit": "nM"},
      {"measurement": "EC50 (read off the curve)", "setting": "[4]", "result": "~5", "unit": "nM"},
      {"measurement": "EC50 (read off the curve)", "setting": "[1]", "result": "~2", "unit": "nM"}
    ]},
    {"binder": "B3", "values": [
      {"measurement": "EC50 (read off the curve)", "setting": "[1]", "result": "~1", "unit": "nM"}
    ]}
  ]
}
